Data taken from PMC4714197, “The Tomato Nucleotide-binding Leucine-rich Repeat Immune Receptor I-2 Couples DNA-binding to Nucleotide-binding Domain Nucleotide Exchange” (The Journal of Biological Chemistry, 2015).
Values belong to the molecule of their own block, whether it stands above or below them.

Legend:
[1] = test system: R1-NB (NB subdomain of Os02g_25900) (Oryza sativa (rice)); assay: EMSA; details: apparent Kd; EMSA: 20 mM Tris-HCl pH 8.0, 60 mM NaCl, 2 mM EDTA, 1 mM DTT, 10% glycerol, 0.1 mg/ml BSA, 0.15 nM nucleic acid, 20 min on ice (nucleotide tests + 10 mM ZnCl2 …)
[2] = biological target: T1, I-2_1–519 (Solanum lycopersicum, UniProt Q9XET3, S233F); assay: EMSA of […]-dsDNA binding with nucleotide; details: 5 uM ADP compared with 5 uM ATP; 10 mM ZnCl2, pH 8.0, on ice
T1 construct: gene I2; CC-NB-ARC domains, residues 1-519, LRR lacking

[3] = biological target: T2, I-2_1–519 (Solanum lycopersicum, UniProt Q9XET3); assay: EMSA of […]-dsDNA binding with nucleotide; details: 5 uM ADP, 10 mM ZnCl2, pH 8.0, on ice; ADP lowers DNA binding
T2 construct: gene I2; CC-NB-ARC domains, residues 1-519, LRR lacking

[4] = biological target: T2, I-2_1–519; assay: ATPase assay, 3H-ATP, TLC; type: biochemical; details: 5 uM ATP, 10 mM MgCl2, pH 7.5, 37 °C; without and with 2 uM DNA; labelled compound
[5] = biological target: T3, I-2 CC-NB-ARC K207R (Solanum lycopersicum (tomato), UniProt Q9XET3 1-519, K207R); assay: fluorescence anisotropy; EMSA: 20 mM Tris-HCl pH 8.0, 60 mM NaCl, 2 mM EDTA, 1 mM DTT, 10% glycerol, 0.1 mg/ml BSA, 0.15 nM nucleic acid, 20 min on ice (nucleotide tests + 10 mM ZnCl2 as printed); anisotropy: 6.7 mM Tris-HCl pH 8.0, 3.3 mM Na acetate, 2 mM EDTA, 10 nM DNA, 25 C; P1: 20 mM Tris acetate pH 7.5, 10 mM Mg acetate, 100 mM NaCl, 37 C; details: protein: recombinant; label: fluorescein end label on SS1s; blunt
T3 sequence: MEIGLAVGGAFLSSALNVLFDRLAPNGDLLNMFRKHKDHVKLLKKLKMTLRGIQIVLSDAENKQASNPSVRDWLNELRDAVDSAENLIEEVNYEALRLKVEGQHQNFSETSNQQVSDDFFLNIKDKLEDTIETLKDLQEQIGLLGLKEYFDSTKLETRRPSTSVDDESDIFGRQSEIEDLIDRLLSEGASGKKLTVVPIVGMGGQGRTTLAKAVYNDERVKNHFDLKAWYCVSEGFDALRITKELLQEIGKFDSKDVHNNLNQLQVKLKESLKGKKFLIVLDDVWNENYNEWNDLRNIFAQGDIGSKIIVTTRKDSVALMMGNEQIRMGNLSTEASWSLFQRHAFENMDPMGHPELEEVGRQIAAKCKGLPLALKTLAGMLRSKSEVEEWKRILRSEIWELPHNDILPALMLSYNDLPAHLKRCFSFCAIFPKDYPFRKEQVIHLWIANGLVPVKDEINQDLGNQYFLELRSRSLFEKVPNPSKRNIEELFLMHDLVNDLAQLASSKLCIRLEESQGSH

[6] = biological target: T4, I-2 CC-NB-ARC WT (I-2 1-519) (Solanum lycopersicum (tomato), UniProt Q9XET3 1-519); assay: as above; details: protein: recombinant; label: fluorescein end label on SS1s; blunt
T4 sequence: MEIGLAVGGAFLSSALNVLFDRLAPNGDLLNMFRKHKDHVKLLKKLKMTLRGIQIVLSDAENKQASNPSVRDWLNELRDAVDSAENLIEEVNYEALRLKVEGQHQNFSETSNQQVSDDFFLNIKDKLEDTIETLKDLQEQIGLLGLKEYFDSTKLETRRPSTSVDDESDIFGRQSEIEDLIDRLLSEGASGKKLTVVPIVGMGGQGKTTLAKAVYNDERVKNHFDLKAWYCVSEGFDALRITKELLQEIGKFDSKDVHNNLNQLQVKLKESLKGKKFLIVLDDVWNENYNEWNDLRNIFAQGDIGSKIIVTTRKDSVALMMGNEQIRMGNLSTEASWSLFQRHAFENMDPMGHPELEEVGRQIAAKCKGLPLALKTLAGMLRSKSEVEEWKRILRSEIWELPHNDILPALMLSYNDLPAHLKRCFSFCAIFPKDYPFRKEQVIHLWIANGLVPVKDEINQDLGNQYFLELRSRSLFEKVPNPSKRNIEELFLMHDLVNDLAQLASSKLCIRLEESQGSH

[7] = biological target: T4, I-2 CC-NB-ARC WT (I-2 1-519); assay: EMSA; apparent Kd; EMSA: 20 mM Tris-HCl pH 8.0, 60 mM NaCl, 2 mM EDTA, 1 mM DTT, 10% glycerol, 0.1 mg/ml BSA, 0.15 nM nucleic acid, 20 min on ice (nucleotide tests + 10 mM ZnCl2 as printed); anisotropy: 6.7 mM Tris-HCl pH 8.0, 3.3 mM Na acetate, 2 mM EDTA, 10 nM DNA, 25 C; P1: 20 mM Tris acetate pH 7.5, 10 mM Mg acetate, 100 mM NaCl, 37 C; details: protein: recombinant, label: 32P end label
[8] = biological target: T3, I-2 CC-NB-ARC K207R; assay: as above; details: protein: recombinant; label: 32P end label; blunt
[9] = biological target: T5, I-2 CC-NB-ARC S233F (Solanum lycopersicum (tomato), UniProt Q9XET3 1-519, S233F); assay: EMSA; indistinguishable from WT; EMSA: 20 mM Tris-HCl pH 8.0, 60 mM NaCl, 2 mM EDTA, 1 mM DTT, 10% glycerol, 0.1 mg/ml BSA, 0.15 nM nucleic acid, 20 min on ice (nucleotide tests + 10 mM ZnCl2 as printed); anisotropy: 6.7 mM Tris-HCl pH 8.0, 3.3 mM Na acetate, 2 mM EDTA, 10 nM DNA, 25 C; P1: 20 mM Tris acetate pH 7.5, 10 mM Mg acetate, 100 mM NaCl, 37 C; details: protein: recombinant; label: 32P end label; blunt
T5 sequence: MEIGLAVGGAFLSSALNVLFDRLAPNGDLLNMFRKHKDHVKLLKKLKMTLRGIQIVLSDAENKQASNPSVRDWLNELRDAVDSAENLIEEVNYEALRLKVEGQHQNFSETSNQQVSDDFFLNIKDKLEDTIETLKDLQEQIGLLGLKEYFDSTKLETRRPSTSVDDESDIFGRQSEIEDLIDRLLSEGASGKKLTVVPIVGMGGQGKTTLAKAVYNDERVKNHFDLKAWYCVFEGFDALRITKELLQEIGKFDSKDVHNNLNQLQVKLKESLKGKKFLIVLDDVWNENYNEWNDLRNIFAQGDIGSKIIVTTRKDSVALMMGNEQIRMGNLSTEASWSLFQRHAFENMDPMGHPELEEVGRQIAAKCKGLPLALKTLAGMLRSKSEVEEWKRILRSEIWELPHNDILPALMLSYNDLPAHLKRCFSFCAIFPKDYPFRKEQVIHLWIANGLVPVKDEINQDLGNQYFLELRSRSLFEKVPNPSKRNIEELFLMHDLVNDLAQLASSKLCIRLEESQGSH

[10] = biological target: T4, I-2 CC-NB-ARC WT (I-2 1-519); assay: EMSA; 5 uM ATP, 10 mM ZnCl2 (so in the source); EMSA: 20 mM Tris-HCl pH 8.0, 60 mM NaCl, 2 mM EDTA, 1 mM DTT, 10% glycerol, 0.1 mg/ml BSA, 0.15 nM nucleic acid, 20 min on ice (nucleotide tests + 10 mM ZnCl2 as printed); anisotropy: 6.7 mM Tris-HCl pH 8.0, 3.3 mM Na acetate, 2 mM EDTA, 10 nM DNA, 25 C; P1: 20 mM Tris acetate pH 7.5, 10 mM Mg acetate, 100 mM NaCl, 37 C; details: protein: recombinant; label: 32P end label; blunt

Molecule: TGGGTCAACGTGGGCAAAGATGTCCTAGCAATGTAATCGTCTATGACGTT [SS1 ssDNA (50 nt)]
Kd [1]: 3340 nM

Molecule: TGGGTCAACGTGGGCAAAGATGTCCTAGCAATGTAATCGTCTATGACGTT (double strand) [SS1/SS2 dsDNA (50 bp)]
Kd [1]: 2750 nM

% DNA binding with ADP relative to ATP [2]: 61 ± 7% | ratio of DNA binding with ADP vs with ATP or no nucleotide [3]: ~ 0.65
Molecule: Nc1ncnc2c1ncn2[C@@H]1O[C@H](COP(=O)(O)OP(=O)(O)O)[C@@H](O)[C@H]1O [ADP]

Molecule: UGGGUCAACGUGGGCAAAGAUGUCCUAGCAAUGUAAUCGUCUAUGACGUU [ssRNA sense strand (50 nt)]
Kd [1]: 12400 nM

Molecule: Nc1ncnc2c1ncn2[C@@H]1O[C@H](COP(=O)(O)OP(=O)(O)OP(=O)(O)O)[C@@H](O)[C@H]1O [ATP]
ATPase activity [4]: The CC-NB-ARC domain of I-2 has a very low intrinsic ATPase activity in vitro

B1: SS1s/SS2s dsDNA (20 bp), anisotropy (dsDNA)
DNA 1: TGGGTCAACGTGGGCAAAGA
DNA 2: TCTTTGCCCACGTTGACCCA
Kd [5]: 940 ± 90 nM | Kd [6]: 320 ± 50 nM

B2: SS1 ssDNA (50 nt) (ssDNA)
DNA: TGGGTCAACGTGGGCAAAGATGTCCTAGCAATGTAATCGTCTATGACGTT
Kd ([7]; single strand): 150 ± 10 nM

B3: SS1/SS2 dsDNA (50 bp) (dsDNA)
DNA 1: TGGGTCAACGTGGGCAAAGATGTCCTAGCAATGTAATCGTCTATGACGTT
DNA 2: AACGTCATAGACGATTACATTGCTAGGACATCTTTGCCCACGTTGACCCA
Kd [8]: 230 ± 10 nM | Kd ([7]; blunt): 220 ± 20 nM | binding result [9]: binds | binding signal [10]: ~1 ratio to no nucleotide
